Literature values in article PMC11612555, “Impact of camel milk lactoferrin peptides against breast cancer cells: in silico and in vitro study” (Frontiers in Pharmacology, 2024).

B1: lactoferrin (protein, UniProt P02788 20-710, looked up)
Lactotransferrin: GRRRSVQWCAVSQPEATKCFQWQRNMRKVRGPPVSCIKRDSPIQCIQAIAENRADAVTLDGGFIYEAGLAPYKLRPVAAEVYGTERQPRTHYYAVAVVKKGGSFQLNELQGLKSCHTGLRRTAGWNVPIGTLRPFLNWTGPPEPIEAAVARFFSASCVPGADKGQFPNLCRLCAGTGENKCAFSSQEPYFSYSGAFKCLRDGAGDVAFIRESTVFEDLSDEAERDEYELLCPDNTRKPVDKFKDCHLARVPSHAVVARSVNGKEDAIWNLLRQAQEKFGKDKSPKFQLFGSPSGQKDLLFKDSAIGFSRVPPRIDSGLYLGSGYFTAIQNLRKSEEEVAARRARVVWCAVGEQELRKCNQWSGLSEGSVTCSSASTTEDCIALVLKGEADAMSLDGGYVYTAGKCGLVPVLAENYKSQQSSDPDPNCVDRPVEGYLAVAVVRRSDTSLTWNSVKGKKSCHTAVDRTAGWNIPMGLLFNQTGSCKFDEYFSQSCAPGSDPRSNLCALCIGDEQGENKCVPNSNERYYGYTGAFRCLAENAGDVAFVKDVTVLQNTDGNNNEAWAKDLKLADFALLCLDGKRKPVTEARSCHLAMAPNHAVVSRMDKVERLKQVLLHQQAKFGRNGSDCPDKFCLFQSETKNLLFNDNTECLARLHGKTTYEKYLGPQYVAGITNLKKCSTSPLLEACEFLRK
B2: bovine lactoferrin (protein, UniProt P24627 20-708, looked up)
Lactotransferrin: APRKNVRWCTISQPEWFKCRRWQWRMKKLGAPSITCVRRAFALECIRAIAEKKADAVTLDGGMVFEAGRDPYKLRPVAAEIYGTKESPQTHYYAVAVVKKGSNFQLDQLQGRKSCHTGLGRSAGWIIPMGILRPYLSWTESLEPLQGAVAKFFSASCVPCIDRQAYPNLCQLCKGEGENQCACSSREPYFGYSGAFKCLQDGAGDVAFVKETTVFENLPEKADRDQYELLCLNNSRAPVDAFKECHLAQVPSHAVVARSVDGKEDLIWKLLSKAQEKFGKNKSRSFQLFGSPPGQRDLLFKDSALGFLRIPSKVDSALYLGSRYLTTLKNLRETAEEVKARYTRVVWCAVGPEEQKKCQQWSQQSGQNVTCATASTTDDCIVLVLKGEADALNLDGGYIYTAGKCGLVPVLAENRKSSKHSSLDCVLRPTEGYLAVAVVKKANEGLTWNSLKDKKSCHTAVDRTAGWNIPMGLIVNQTGSCAFDEFFSQSCAPGADPKSRLCALCAGDDQGLDKCVPNSKEKYYGYTGAFRCLAEDVGDVAFVKNDTVWENTNGESTADWAKNLNREDFRLLCLDGTRKPVTEAQSCHLAVAPNHAVVSRSDRAAHVKQVLLHQQALFGKNGKNCPDKFCLFKSETKNLLFNDNTECLAKLGGRPTYEEYLGTEYVTAIANLKKCSTSPLLEACAFLTR
notes: lactoferrin from bovine milk

What was measured:
MDAmb231 cells = tested on: MDAmb231 cells; set-up: method as in Rascón-Cruz et al., 2021b; settings: against MDAmb231; ref Rascón-Cruz et al., 2021b
HeLa cells = tested on: HeLa cells; set-up: method as in Rascón-Cruz et al., 2021b; settings: against HeLa; ref Rascón-Cruz et al., 2021b
MDA-MB-231 = tested on: MDA-MB-231; set-up: method as in Zhang et al., 2014; settings: ref Zhang et al., 2014
MCF-10-2A = tested on: MCF-10-2A; set-up: method as in Zhang et al., 2014; settings: normal breast cell line MCF-10-2A; ref Zhang et al., 2014
MCF-7 = tested on: MCF-7; set-up: method as in Zhang et al., 2014; settings: ref Zhang et al., 2014
T-47D = tested on: T-47D; set-up: method as in Zhang et al., 2014; settings: ref Zhang et al., 2014
Hs578T = tested on: Hs578T; set-up: method as in Zhang et al., 2014; settings: ref Zhang et al., 2014

Molecule | selective index (MDAmb231 cells) | selective index (HeLa cells) | proliferation (MDA-MB-231) | proliferation (MCF-10-2A) | proliferation (MCF-7) | proliferation (T-47D) | proliferation (Hs578T)
B1 | 11.68 | 9.59 | – | – | – | – | –
B2 | – | – | inhibited | not | inhibited | inhibited | inhibited
